For assay [1], the target named is T1, FcγRIIIa (human, UniProt P08637 17-208).
T1 construct: also called FcγRIIIa/b (first member)
In words: stated in the variant's description; method not given.

Assay [2] has as its target T2, FcγRIIIb (human, UniProt O75015 17-200).
T2 construct: also called FcγRIIIa/b (second member)
Described as above.

Assay [3] deals with T1, FcγRIIIa. The experiment in a line: stated in the variant's description; FcγR binding profile in FIG. 22A.
Assay [4] addresses T2, FcγRIIIb. Described as above.

T1 sequence (P08637 17-208 limits assumed): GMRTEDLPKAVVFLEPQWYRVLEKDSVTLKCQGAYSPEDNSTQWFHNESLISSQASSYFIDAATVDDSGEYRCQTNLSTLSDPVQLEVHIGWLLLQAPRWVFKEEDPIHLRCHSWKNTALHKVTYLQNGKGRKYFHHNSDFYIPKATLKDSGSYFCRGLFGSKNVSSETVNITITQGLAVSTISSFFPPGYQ
T2 sequence (O75015 17-200 limits assumed): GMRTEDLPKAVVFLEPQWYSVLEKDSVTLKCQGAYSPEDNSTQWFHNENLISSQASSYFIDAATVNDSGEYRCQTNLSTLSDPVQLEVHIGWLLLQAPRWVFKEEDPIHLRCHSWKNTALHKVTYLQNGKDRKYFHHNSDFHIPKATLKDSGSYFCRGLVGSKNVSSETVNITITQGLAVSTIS

B1: 1A01_ALIE (antibody)
heavy: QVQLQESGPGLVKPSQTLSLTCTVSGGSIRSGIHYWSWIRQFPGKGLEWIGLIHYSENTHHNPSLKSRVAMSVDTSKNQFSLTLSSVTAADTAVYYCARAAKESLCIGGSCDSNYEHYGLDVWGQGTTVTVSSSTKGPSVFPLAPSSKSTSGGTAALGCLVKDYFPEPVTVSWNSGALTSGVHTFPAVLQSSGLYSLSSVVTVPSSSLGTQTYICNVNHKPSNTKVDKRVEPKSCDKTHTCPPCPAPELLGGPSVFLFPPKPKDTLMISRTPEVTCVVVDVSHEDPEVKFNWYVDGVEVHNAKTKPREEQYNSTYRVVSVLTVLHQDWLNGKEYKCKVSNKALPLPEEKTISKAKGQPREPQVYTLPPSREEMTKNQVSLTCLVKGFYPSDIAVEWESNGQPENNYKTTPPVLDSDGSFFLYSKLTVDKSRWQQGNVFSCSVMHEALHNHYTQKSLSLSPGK
light: DIQMTQSPSSLSASIGDRVTITCRASQSIRNYLNWYQQKPGKAPKLVIYAVSNLQSGVPSRFSGSGSGTDFTLTISSLQPEDLATYYCQQSYSTLPYTFGQGTKVEIKLERADAAPTVSIFPPSSEQLTSGGASVVCFLNNFYPKDINVKWKIDGSERQNGVLNSWTDQDSKDSTYSMSSTLTLTKDEYERHNSYTCEATHKTSTSPIVKSFNRNEC
Take B1: the binding result with FcγRIIIa [1] and in the assay with FcγRIIIb [2] was “binds” in each case.

B2: Flu1_ALIE (antibody)
heavy: not shown
light: DIQMTQSPSSLSASVGDRVTITCRTSQSLSSYLHWYQQKPGKAPKLLIYAASSLQSGVPSRFSGSGSGTDFTLTISSLQPEDFATYYCQQSRTFGQGTKVEIKRTVAAPSVFIFPPSDEQLKSGTASVVCLLNNFYPREAKVQWKVDNALQSGNSQESVTEQDSKDSTYSLSSTLTLSKADYEKHKVYACEVTHQGLSSPVTKSFNRGEC
Regarding B2, the binding result with FcγRIIIa [1] and with FcγRIIIb [2] was “binds” throughout.

B3: Flu1_afucosylated (antibody)
heavy: not shown
light: DIQMTQSPSSLSASVGDRVTITCRTSQSLSSYLHWYQQKPGKAPKLLIYAASSLQSGVPSRFSGSGSGTDFTLTISSLQPEDFATYYCQQSRTFGQGTKVEIKRTVAAPSVFIFPPSDEQLKSGTASVVCLLNNFYPREAKVQWKVDNALQSGNSQESVTEQDSKDSTYSLSSTLTLSKADYEKHKVYACEVTHQGLSSPVTKSFNRGEC
notes: also called the afucosylated antibody
In the case of B3, the binding result with FcγRIIIa [1] and with FcγRIIIb [2] was “binds” each time.

B4: 3C05_ALIE (antibody)
heavy: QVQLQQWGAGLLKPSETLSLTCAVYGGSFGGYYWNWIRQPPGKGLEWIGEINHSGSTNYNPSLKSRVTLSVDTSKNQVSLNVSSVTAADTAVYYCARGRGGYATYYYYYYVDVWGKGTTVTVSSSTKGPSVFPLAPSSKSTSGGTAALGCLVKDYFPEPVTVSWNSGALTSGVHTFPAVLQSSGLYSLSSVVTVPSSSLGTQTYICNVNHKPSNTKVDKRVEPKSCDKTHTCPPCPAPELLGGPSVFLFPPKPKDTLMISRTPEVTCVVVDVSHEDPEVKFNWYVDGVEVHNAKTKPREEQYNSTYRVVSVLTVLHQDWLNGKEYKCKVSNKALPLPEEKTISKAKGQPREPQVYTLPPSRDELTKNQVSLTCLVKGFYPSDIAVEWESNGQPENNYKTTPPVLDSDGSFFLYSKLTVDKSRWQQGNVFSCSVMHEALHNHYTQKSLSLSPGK
light: EIVLTQSPATLSLSPGERATLSCRASQSVSSYLAWYQQKPGQAPRLLIYDASKRATGIPARFSGSGSGTDFTLTISSLEPEDFAVYYCQQRSNWLTFGGGTKVELERTVAAPSVFIFPPSDEQLKSGTASVVCLLNNFYPREAKVQWKVDNALQSGNSQESVTEQDSKDSTYSLSSTLTLSKADYEKHKVYACEVTHQGLSSPVTKSFNRGEC
Regarding B4, the binding result with FcγRIIIa [3] and with FcγRIIIb [4] was “binds” throughout.

The record behind these values is patent US20220298230A1 (ROCKEFELLER UNIVERSITY, published 2022).
